Data as given in patent US20060073152A1 (Genentech, published 2006).
Where two headings read alike, the source gives them in different places. Positions of bridges follow the written chain, without caps; N, C: chain ends. No end group written: not given here.

Experiments:
[1] = molecular target: T1, human serum albumin (human, UniProt P02768 25-609); assay: phage binding
T1 construct: also called Human SA; HuSA

[2] = molecular target: T2, rabbit serum albumin (rabbit, UniProt P49065 25-608); assay: peptide competition for albumin
T2 construct: also called Rabbit SA; BuSA

[3] = molecular target: T3, rat serum albumin (rat, UniProt P02770 25-608); assay: peptide competition for albumin
T3 construct: also called Rat SA; RSA

[4] = molecular target: T4, mouse serum albumin (mouse, UniProt P07724 25-608); assay: peptide competition for albumin
T4 construct: also called Mouse SA; MuSA

[5] = molecular target: T3, rat serum albumin; assay: phage binding
[6] = molecular target: T2, rabbit serum albumin; assay: phage binding
[7] = molecular target: T2, rabbit serum albumin; assay: phage binding; remark: listed apart in the source
[8] = molecular target: T3, rat serum albumin; assay: phage binding; remark: listed apart in the source
[9] = molecular target: T1, human serum albumin; assay: phage binding; remark: listed apart in the source
[10] = molecular target: T2, rabbit serum albumin; assay: phage binding; remark: listed apart in the source
[11] = molecular target: T3, rat serum albumin; assay: phage binding; remark: listed apart in the source
[12] = molecular target: T1, human serum albumin; assay: phage binding; remark: listed apart in the source
[13] = molecular target: T2, rabbit serum albumin; assay: peptide competition; head prints RSA, read as rabbit

T2 sequence (P49065 25-608 limits assumed): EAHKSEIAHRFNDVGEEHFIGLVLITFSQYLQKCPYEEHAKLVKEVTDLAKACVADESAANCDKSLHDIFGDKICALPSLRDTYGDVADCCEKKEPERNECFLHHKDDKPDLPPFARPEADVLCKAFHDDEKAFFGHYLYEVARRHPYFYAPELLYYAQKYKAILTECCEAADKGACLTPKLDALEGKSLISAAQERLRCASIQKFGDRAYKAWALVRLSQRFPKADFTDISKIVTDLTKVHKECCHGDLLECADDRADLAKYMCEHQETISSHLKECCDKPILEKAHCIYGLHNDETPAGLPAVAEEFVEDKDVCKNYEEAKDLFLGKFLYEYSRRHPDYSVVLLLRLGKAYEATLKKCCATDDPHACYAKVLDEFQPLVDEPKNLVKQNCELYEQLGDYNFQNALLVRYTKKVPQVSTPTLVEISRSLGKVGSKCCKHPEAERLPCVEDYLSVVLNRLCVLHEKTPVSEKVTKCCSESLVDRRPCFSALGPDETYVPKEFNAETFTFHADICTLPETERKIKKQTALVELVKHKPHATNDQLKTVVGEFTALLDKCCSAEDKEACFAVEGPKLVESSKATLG
T3 sequence (P02770 25-608 limits assumed): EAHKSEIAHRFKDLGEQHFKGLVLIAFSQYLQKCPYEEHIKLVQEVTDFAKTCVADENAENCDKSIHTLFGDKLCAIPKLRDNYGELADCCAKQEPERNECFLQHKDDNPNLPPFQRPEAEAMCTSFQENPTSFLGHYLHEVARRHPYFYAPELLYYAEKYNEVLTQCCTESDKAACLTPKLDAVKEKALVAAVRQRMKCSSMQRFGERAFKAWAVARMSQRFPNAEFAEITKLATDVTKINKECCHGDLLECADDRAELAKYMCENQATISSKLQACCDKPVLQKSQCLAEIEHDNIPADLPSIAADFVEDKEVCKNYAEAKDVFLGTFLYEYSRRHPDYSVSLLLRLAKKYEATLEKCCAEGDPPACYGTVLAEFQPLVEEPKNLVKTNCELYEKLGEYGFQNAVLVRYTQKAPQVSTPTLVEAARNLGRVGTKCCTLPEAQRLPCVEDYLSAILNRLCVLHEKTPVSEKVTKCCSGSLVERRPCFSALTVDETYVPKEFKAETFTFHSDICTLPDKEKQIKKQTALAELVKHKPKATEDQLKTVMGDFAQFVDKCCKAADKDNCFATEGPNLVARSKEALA
T4 sequence (P07724 25-608 limits assumed): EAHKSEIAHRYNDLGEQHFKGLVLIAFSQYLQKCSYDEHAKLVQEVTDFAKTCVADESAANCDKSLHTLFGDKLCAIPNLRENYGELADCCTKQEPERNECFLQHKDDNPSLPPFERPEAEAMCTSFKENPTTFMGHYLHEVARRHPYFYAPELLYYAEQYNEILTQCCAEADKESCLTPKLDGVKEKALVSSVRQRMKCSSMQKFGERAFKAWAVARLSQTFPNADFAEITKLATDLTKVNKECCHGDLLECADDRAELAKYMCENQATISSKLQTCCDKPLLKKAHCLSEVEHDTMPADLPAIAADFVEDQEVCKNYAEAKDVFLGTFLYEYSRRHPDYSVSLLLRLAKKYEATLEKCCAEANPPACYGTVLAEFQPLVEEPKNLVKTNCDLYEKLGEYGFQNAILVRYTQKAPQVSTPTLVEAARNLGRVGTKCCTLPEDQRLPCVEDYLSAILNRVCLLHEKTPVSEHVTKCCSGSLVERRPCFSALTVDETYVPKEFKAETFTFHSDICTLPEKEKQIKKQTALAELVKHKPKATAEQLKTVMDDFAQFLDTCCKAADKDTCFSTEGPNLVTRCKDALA

RAPESFVCYWETICFERSEQ (on phage; also called Library HB) [HB]
binding result [1]: binds

Ac-RLMEDICLPRWGCLWEDD-NH2 (cysteine pairing not given here, free peptide) [SA10]
IC50 [2]: 86 nM | IC50 [3]: 77 nM

Ac-MEDICLPRWGCLWEDD-NH2 (not fully specified (bridges); cysteine pairing not given here, free peptide) [SA11]
IC50 [2]: 1210 nM | IC50 [3]: 232 nM | IC50 [4]: 17 nM

EMCYFPGICWM (on phage; also called Library HC) [HC]
binding result [1]: binds | binding result [5]: binds

KSCSELHWLLVEECLF (not fully specified (bridges); cysteine pairing not given here, on phage) [BD]
binding result [6]: binds

QMHMMDICLPKWGCLWGDTS (not fully specified (bridges); cysteine pairing not given here, on phage) [RB-B9]
binding result [7]: binds | binding result [8]: binds

DLCLRDWGCLW (on phage; also called Library RC) [RC]
binding result [5]: binds

DTCVDLVRLGLECWG (on phage; also called Library RD) [RD]
binding result [5]: binds

MELWCDSTLMAYDLCGDFNM (on phage) [BA-B39]
binding result [7]: binds

QRLMEDICLPRWGCLWEDDF-NH2 (disulfide 8-14 (inferred)) [SA06]
IC50 [2]: 128 nM | IC50 [3]: 68 nM | IC50 [4]: 8 nM

B1: RB-B11 (peptide)
peptide: QWQVMDICLPRWGCLWADEY
modifications: not fully specified (bridges); cysteine pairing not given here; also: phage-displayed
notes: on phage
binding result [9]: binds | binding result [10]: binds | binding result [11]: binds

NRQMEDICLPQWGCLWGDDF (on phage) [RB-H6]
binding result [9]: binds | binding result [10]: binds | binding result [11]: binds

QRHPEDICLPRWGCLWGDDD (on phage) [RB-H1]
binding result [9]: binds | binding result [10]: binds | binding result [11]: binds

MEDICLPRWGCLWED-NH2 (not fully specified (bridges); cysteine pairing not given here, free peptide) [SA05]
IC50 [2]: 804 nM | IC50 [3]: 161 nM | IC50 [4]: 6 nM

B2: RB-B3 (peptide)
peptide: QSYMEDICLPRWGCLSDDAS
modifications: not fully specified (bridges); cysteine pairing not given here; also: phage-displayed
notes: on phage
binding result [7]: binds | binding result [8]: binds

QGLIGDICLPRWGCLWGDSV-NH2 (not fully specified (bridges); cysteine pairing not given here, free peptide) [SA07]
IC50 [2]: 30 nM | IC50 [3]: 35 nM | IC50 [4]: 6 nM

B3: RB-B1 (peptide)
peptide: RWQTEDVCLPKWGCLFGDGV
modifications: not fully specified (bridges); cysteine pairing not given here; also: phage-displayed
notes: on phage
binding result [7]: binds | binding result [8]: binds

B4: RA (peptide)
peptide: RNEDPCVVLLEMGLECWEGV
modifications: not fully specified (bridges); cysteine pairing not given here; also: phage-displayed
notes: on phage
binding result [5]: binds

EVRSFCTDWPAEKSCKPLRG (on phage; also called Library HA) [HA]
binding result [1]: binds

B5: RB-B16 (peptide)
peptide: HRLVEDICLPRWGCLWGNDF
modifications: not fully specified (bridges); cysteine pairing not given here; also: phage-displayed
notes: on phage
binding result [12]: binds | binding result [7]: binds | binding result [8]: binds

B6: HC-R10 (peptide)
peptide: QRDMGDICLPRWGCLWEDGV
modifications: not fully specified (bridges); cysteine pairing not given here; also: phage-displayed
notes: on phage
binding result [12]: binds | binding result [7]: binds | binding result [8]: binds

LIFMEDVCLPQWGCLWEDGV (on phage) [RB-R16]
binding result [12]: binds | binding result [7]: binds | binding result [8]: binds

GEDWCDSTLLAFDLCGEGAR (on phage) [BA-B44]
binding result [7]: binds

QGDFWDICLPRWGCLSGEGY (on phage) [RB-B10]
binding result [7]: binds | binding result [8]: binds

MDELAFYCGIWECLMHQEQK (on phage) [BB]
binding result [6]: binds

HSQMEDICLPRWGCLWGDEL (not fully specified (bridges); cysteine pairing not given here, on phage) [RB-B8]
binding result [9]: binds | binding result [10]: binds | binding result [11]: binds

LRLMDNICLPRWGCLWDDGF (not fully specified (bridges); cysteine pairing not given here, on phage) [RB-B7]
binding result [9]: binds | binding result [10]: binds | binding result [11]: binds

LWAMEDICLPKWGCLWEDDF (on phage) [RB-B4]
binding result [9]: binds | binding result [10]: binds | binding result [11]: binds

CGCVDVSDWDCWSECLWSHGA (on phage) [RE]
binding result [5]: binds

LRIFEDICLPKWGCLWGEGF (on phage) [RB-B14]
binding result [7]: binds | binding result [8]: binds

Ac-MEDICLPRWGCLWED-NH2 (not fully specified (bridges); cysteine pairing not given here, free peptide) [SA12]
IC50 [2]: 1760 nM | IC50 [3]: 205 nM | IC50 [4]: 13 nM

GENWCDWVLLAYDLCGEDNT (on phage) [BA-B37]
binding result [7]: binds

B7: RB-B6 (peptide)
peptide: QWQMENVCLPKWGCLWEELD
modifications: not fully specified (bridges); cysteine pairing not given here; also: phage-displayed
notes: on phage
binding result [9]: binds | binding result [10]: binds | binding result [11]: binds

QWHMEDICLPQWGCLWGDVL (on phage) [RB-B5]
binding result [9]: binds | binding result [10]: binds | binding result [11]: binds

DICLPRWGCLW-NH2 (not fully specified (bridges); cysteine pairing not given here, free peptide) [SA04]
IC50 [2]: 8540 nM | IC50 [3]: 787 nM | IC50 [4]: 40 nM | IC50 [13]: 8540 nM

DLCDVDFCWF (on phage) [BC]
binding result [6]: binds

GENWCDSTLMAYDLCGQVNM (on phage; also called Library BA) [BA]
binding result [6]: binds

Ac-EDICLPRWGCLWEDD-NH2 (not fully specified (bridges); cysteine pairing not given here, free peptide) [SA09]
IC50 [2]: 1690 nM | IC50 [3]: 258 nM | IC50 [4]: 6 nM

QGLIGDICLPRWGCLWGDSV (on phage; also called RB-R8) [RB-B12]
binding result [12]: binds | binding result [7]: binds | binding result [8]: binds
